Measured values published in PMC2944331, “Similarity of Recombinant Human Perlecan Domain 1 by Alternative Expression Systems Bioactive Heterogenous Recombinant Human Perlecan D1” (BMC Biotechnology, 2010).

Assays:
Assay in all cases: far-Western, overlay or dot blot; growth factor dot blot: 500 ng growth factor bound to nitrocellulose; 1 μg/ml rhPln.198, rhPln.247 or heparinase III digested rhPln.247 in PBS-Tween overnight at 4°C; detected with anti-perlecan domain 1 mAb CSI 001-71
Conditions in all cases: both partners purified
[1] = molecular target: T1, recombinant human perlecan domain 1, amino acids 1-198 (rhPln.198), enriched high Mr glycosylated pool (human, UniProt P98160 22-198, glycosaminoglycan chains, either heparan sulfate (about 1/3 of the pool) or chondroitin sulfate (about 2/3), at the three SGD linkage sites)
T1 construct: signal peptide in the construct; Heterogeneous proteoglycan pool with minor contaminants (bovine lumican, haemoglobin, BSA); also called rhPln.D1; Pln.D1
T1 sequence (P98160 22-198): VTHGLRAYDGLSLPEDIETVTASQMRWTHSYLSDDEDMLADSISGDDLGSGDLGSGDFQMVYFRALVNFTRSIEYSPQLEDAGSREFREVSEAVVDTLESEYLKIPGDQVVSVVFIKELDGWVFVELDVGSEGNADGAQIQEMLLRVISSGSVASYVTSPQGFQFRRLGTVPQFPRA

[2] = molecular target: T2, rhPln.247 digested with heparinase III (human, UniProt P98160 22-247, heparan sulfate chains digested with heparinase III; chondroitin sulfate chains not digested)
T2 construct: signal peptide in the construct; Same polypeptide as m2; Only the glycosaminoglycan chains differ; also called heparinise III digested rhPln.247; rhPln.247 pre-digested with heparinase III; source: HEK 293 cells, enriched high Mr pool, then digested with heparinase III (1 mU/μg, overnight, 37°C)
T2 sequence (P98160 22-247): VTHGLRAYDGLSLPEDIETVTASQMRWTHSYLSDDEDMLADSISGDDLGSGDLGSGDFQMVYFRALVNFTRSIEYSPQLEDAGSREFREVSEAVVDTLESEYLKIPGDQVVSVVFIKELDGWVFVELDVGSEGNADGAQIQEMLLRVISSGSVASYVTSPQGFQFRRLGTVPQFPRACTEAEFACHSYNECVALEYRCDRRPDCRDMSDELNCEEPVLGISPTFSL

[3] = molecular target: T3, recombinant human perlecan domain 1, amino acids 1-247 (rhPln.247), enriched high Mr glycosylated pool (human, UniProt P98160 22-247, glycosaminoglycan chains, either heparan sulfate (about 1/3 of the pool) or chondroitin sulfate (about 2/3), at the three SGD linkage sites)
T3 construct: signal peptide in the construct; Heterogeneous proteoglycan pool; also called rhPln.D1; Pln.D1
T3 sequence (P98160 22-247): as above

Measured: binding result

B1: recombinant human bone morphogenetic protein 7 (rhBMP-7) (ligand)
chain: STGSKQRSQNRSKTPKNQEALRMANVAENSSSDQRQACKKHELYVSFRDLGWQDWIIAPEGYAAYYCEGECAFPLNSYMNATNHAIVQTLVHFINPETVPKPCCAPTQLNAISVLYFDDSSNVILKKYRNMVVRACGCH
notes: human bone morphogenetic protein 7, recombinant
binds: [1] | [2] | [3]

B2: recombinant human bone morphogenetic protein 6 (rhBMP-6) (ligand)
chain: SASSRRRQQSRNRSTQSQDVARVSSASDYNSSELKTACRKHELYVSFQDLGWQDWIIAPKGYAANYCDGECSFPLNAHMNATNHAIVQTLVHLMNPEYVPKPCCAPTKLNAISVLYFDDNSNVILKKYRNMVVRACGCH
notes: human bone morphogenetic protein 6, recombinant
binds: [1] | [2] | [3]
